± gives the standard deviation of the averaged measurements.
Test: total protein half-life in vivo (active degradation + dilution); higher = more stable protein
[1] = E. coli NCM3722 delta-clpP delta-lon delta-hslV, growth: N-lim chemostat, doubling time 6 h
[2] = E. coli NCM3722 delta-clpP, growth: N-lim chemostat, doubling time 6 h
[3] = E. coli NCM3722 delta-hslV, growth: N-lim chemostat, doubling time 6 h
[4] = E. coli NCM3722 delta-lon, growth: N-lim chemostat, doubling time 6 h
[5] = E. coli NCM3722 delta-smpB, growth: N-lim chemostat, doubling time 6 h
[6] = wild type E. coli NCM3722, growth: C-lim chemostat, doubling time 3 h
[7] = wild type E. coli NCM3722, growth: C-lim chemostat, doubling time 6 h
[8] = wild type E. coli NCM3722, growth: C-lim chemostat, doubling time 12 h
[9] = wild type E. coli NCM3722, growth: N-lim chemostat, doubling time 6 h
[10] = wild type E. coli NCM3722, growth: N-lim chemostat, doubling time 12 h
[11] = wild type E. coli NCM3722, growth: P-lim chemostat, doubling time 6 h
[12] = wild type E. coli NCM3722, growth: P-lim chemostat, doubling time 12 h

Sequence	total protein half-life in vivo [1]	total protein half-life in vivo [2]	total protein half-life in vivo [3]	total protein half-life in vivo [4]	total protein half-life in vivo [5]	total protein half-life in vivo [6]	total protein half-life in vivo [7]	total protein half-life in vivo [8]	total protein half-life in vivo [9]	total protein half-life in vivo [10]	total protein half-life in vivo [11]	total protein half-life in vivo [12]
MAKTLYEKLFDAHVVYEAENETPLLYIDRHLVHEVTSPQAFDGLRAHGRPVRQPGKTFATMDHNVSTQTKDINACGEMARIQMQELIKNCKEFGVELYDLNHPYQGIVHVMGPEQGVTLPGMTIVCGDSHTATHGAFGALAFGIGTSEVEHVLATQTLKQGRAKTMKIEVQGKAAPGITAKDIVLAIIGKTGSAGGTGHVVEFCGEAIRDLSMEGRMTLCNMAIEMGAKAGLVAPDETTFNYVKGRLHAPKGKDFDDAVAYWKTLQTDEGATFDTVVTLQAEEISPQVTWGTNPGQVISVNDNIPDPASFADPVERASAEKALAYMGLKPGIPLTEVAIDKVFIGSCTNSRIEDLRAAAEIAKGRKVAPGVQALVVPGSGPVKAQAEAEGLDKIFIEAGFEWRLPGCSMCLAMNNDRLNPGERCASTSNRNFEGRQGRGGRTHLVSPAMAAAAAVTGHFADIRNIK [P0A6A6]	4.76 ± 0.36 h	1.53 ± 0.022 h	2.72 ± 0.34 h	3.63 ± 0.16 h	2.28 ± 0.034 h	1.877 ± 0.017 h	3.17 ± 0.04 h	3.71 ± 0.57 h	2.9 ± 0.39 h	3.91 ± 0.068 h	2.32 ± 0.4 h	5.41 ± 0.32 h
MAKVLVLYYSMYGHIETMARAVAEGASKVDGAEVVVKRVPETMPPQLFEKAGGKTQTAPVATPQELADYDAIIFGTPTRFGNMSGQMRTFLDQTGGLWASGALYGKLASVFSSTGTGGGQEQTITSTWTTLAHHGMVIVPIGYAAQELFDVSQVRGGTPYGATTIAGGDGSRQPSQEELSIARYQGEYVAGLAVKLNG [P0A8G6]	5.48 ± 0.11 h	5.53 ± 0.88 h	5.48 ± 0.15 h	5.7 ± 0.49 h	4.89 ± 0.052 h	3.227 ± 0.018 h	5.98 ± 0.084 h	11.1 ± 1.1 h	5.31 ± 0.38 h	9.99 ± 1.1 h	5.69 ± 0.29 h	11.7 ± 0.32 h
MAKVSLEKDKIKFLLVEGVHQKALESLRAAGYTNIEFHKGALDDEQLKESIRDAHFIGLRSRTHLTEDVINAAEKLVAIGCFCIGTNQVDLDAAAKRGIPVFNAPFSNTRSVAELVIGELLLLLRGVPEANAKAHRGVWNKLAAGSFEARGKKLGIIGYGHIGTQLGILAESLGMYVYFYDIENKLPLGNATQVQHLSDLLNMSDVVSLHVPENPSTKNMMGAKEISLMKPGSLLINASRGTVVDIPALCDALASKHLAGAAIDVFPTEPATNSDPFTSPLCEFDNVLLTPHIGGSTQEAQENIGLEVAGKLIKYSDNGSTLSAVNFPEVSLPLHGGRRLMHIHENRPGVLTALNKIFAEQGVNIAAQYLQTSAQMGYVVIDIEADEDVAEKALQAMKAIPGTIRARLLY [P0A9T0]	5.06 ± 0.26 h	4.512 ± 0.0057 h	3.75 ± 0.028 h	4.11 ± 0.16 h	4.09 ± 0.058 h	3.09 ± 0.13 h	5.65 ± 0.34 h	11.5 ± 1.3 h	3.94 ± 0.12 h	5.84 ± 0.19 h	6.02 ± 0.23 h	11.8 ± 0.39 h
MALAMKVISQVEAQRKILEEAVSTALELASGKSDGAEVAVSKTTGISVSTRYGEVENVEFNSDGALGITVYHQNRKGSASSTDLSPQAIARTVQAALDIARYTSPDPCAGVADKELLAFDAPDLDLFHPAEVSPDEAIELAARAEQAALQADKRITNTEGGSFNSHYGVKVFGNSHGMLQGYCSTRHSLSSCVIAEENGDMERDYAYTIGRAMSDLQTPEWVGADCARRTLSRLSPRKLSTMKAPVIFANEVATGLFGHLVGAIAGGSVYRKSTFLLDSLGKQILPDWLTIEEHPHLLKGLASTPFDSEGVRTERRDIIKDGILTQWLLTSYSARKLGLKSTGHAGGIHNWRIAGQGLSFEQMLKEMGTGLVVTELMGQGVSAITGDYSRGAAGFWVENGEIQYPVSEITIAGNLKDMWRNIVTVGNDIETRSNIQCGSVLLPEMKIAGQ [P0AFK0]	4.58 ± 0.36 h	4.28 ± 0.05 h	4.07 ± 0.065 h	4.34 ± 0.1 h	4.12 ± 0.032 h	3.39 ± 0.57 h	5.59 ± 0.52 h	9.13 ± 0.67 h	4.27 ± 0.28 h	6.45 ± 0.34 h	5.5 ± 0.28 h	10.09 ± 0.033 h
MALIVEFICELPNGVHARPASHVETLCNTFSSQIEWHNLRTDRKGNAKSALALIGTDTLAGDNCQLLISGADEQEAHQRLSQWLRDEFPHCDAPLAEVKSDELEPLPVSLTNLNPQIIRARTVCSGSAGGILTPISSLDLNALGNLPAAKGVDAEQSALENGLTLVLKNIEFRLLDSDGATSAILEAHRSLAGDTSLREHLLAGVSAGLSCAEAIVASANHFCEEFSRSSSSYLQERALDVRDVCFQLLQQIYGEQRFPAPGKLTQPAICMADELTPSQFLELDKNHLKGLLLKSGGTTSHTVILARSFNIPTLVGVDIDALTPWQQQTIYIDGNAGAIVVEPGEAVARYYQQEARVQDALREQQRVWLTQQARTADGIRIEIAANIAHSVEAQAAFGNGAEGVGLFRTEMLYMDRTSAPGESELYNIFCQALESANGRSIIVRTMDIGGDKPVDYLNIPAEANPFLGYRAVRIYEEYASLFTTQLRSILRASAHGSLKIMIPMISSMEEILWVKEKLAEAKQQLRNEHIPFDEKIQLGIMLEVPSVMFIIDQCCEEIDFFSIGSNDLTQYLLAVDRDNAKVTRHYNSLNPAFLRALDYAVQAVHRQGKWIGLCGELGAKGSVLPLLVGLGLDELSMSAPSIPAAKARMAQLDSRECRKLLNQAMACRTSLEVEHLLAQFRMTQQDAPLVTAECITLESDWRSKEEVLKGMTDNLLLAGRCRYPRKLEADLWAREAVFSTGLGFSFAIPHSKSEHIEQSTISVARLQAPVRWGDDEAQFIIMLTLNKHAAGDQHMRIFSRLARRIMHEEFRNALVNAASADAIASLLQHELEL	–	–	–	–	–	2.7 h	–	7.46 h	–	–	–	–
MALLQISEPGLSAAPHQRRLAAGIDLGTTNSLVATVRSGQAETLADHEGRHLLPSVVHYQQQGHSVGYDARTNAALDTANTISSVKRLMGRSLADIQQRYPHLPYQFQASENGLPMIETAAGLLNPVRVSADILKALAARATEALAGELDGVVITVPAYFDDAQRQGTKDAARLAGLHVLRLLNEPTAAAIAYGLDSGQEGVIAVYDLGGGTFDISILRLSRGVFEVLATGGDSALGGDDFDHLLADYIREQAGIPDRSDNRVQRELLDAAIAAKIALSDADSVTVNVAGWQGEISREQFNELIAPLVKRTLLACRRALKDAGVEADEVLEVVMVGGSTRVPLVRERVGEFFGRPPLTSIDPDKVVAIGAAIQADILVGNKPDSEMLLLDVIPLSLGLETMGGLVEKVIPRNTTIPVARAQDFTTFKDGQTAMSIHVMQGERELVQDCRSLARFALRGIPALPAGGAHIRVTFQVDADGLLSVTAMEKSTGVEASIQVKPSYGLTDSEIASMIKDSMSYAEQDVKARMLAEQKVEAARVLESLHGALAADAALLSAAERQVIDDAAAHLSEVAQGDDVDAIEQAIKNVDKQTQDFAARRMDQSVRRALKGHSVDEV [P0A6Z1]	5.04 ± 0.78 h	4.05 ± 0.14 h	2.65 ± 0.14 h	3.22 ± 0.24 h	2.53 ± 0.028 h	2.7 ± 0.2 h	4.48 ± 0.47 h	7.07 ± 1.1 h	2.857 ± 0.016 h	3.54 ± 0.12 h	4.05 ± 0.31 h	6.96 ± 0.068 h
MAMETQDIIKRSATNSITPPSQVRDYKAEVAKLIDVSTCIGCKACQVACSEWNDIRDEVGHCVGVYDNPADLSAKSWTVMRFSETEQNGKLEWLIRKDGCMHCEDPGCLKACPSAGAIIQYANGIVDFQSENCIGCGYCIAGCPFNIPRLNKEDNRVYKCTLCVDRVSVGQEPACVKTCPTGAIHFGTKKEMLELAEQRVAKLKARGYEHAGVYNPEGVGGTHVMYVLHHADQPELYHGLPKDPKIDTSVSLWKGALKPLAAAGFIATFAGLIFHYIGIGPNKEVDDDEEDHHE [P0AAJ3]	–	4.35 h	> 8 h	–	–	–	–	–	3.95 h	–	6.22 h	–
MAMHLNENLDDNGEMHDINVTPFIDVMLVLLIIFMVAAPLATVDVKVNLPASTSTPQPRPEKPVYLSVKADNSMFIGNDPVTDETMITALNALTEGKKDTTIFFRADKTVDYETLMKVMDTLHQAGYLKIGLVGEETAKAK [P0ABV2]	2.68 ± 0.35 h	2.74 ± 0.56 h	–	–	0.61 h	1.34 ± 0.17 h	0.847 ± 0.64 h	1.88 ± 0.74 h	1.12 h	–	1.01 h	2.15 h
MAMYQNMLVVIDPNQDDQPALRRAVYLHQRIGGKIKAFLPIYDFSYEMTTLLSPDERTAMRQGVISQRTAWIHEQAKYYLNAGVPIEIKVVWHNRPFEAIIQEVISGGHDLVLKMAHQHDRLEAVIFTPTDWHLLRKCPSPVWMVKDQPWPEGGKALVAVNLASEEPYHNALNEKLVKETIELAEQVNHTEVHLVGAYPVTPINIAIELPEFDPSVYNDAIRGQHLLAMKALRQKFGINENMTHVEKGLPEEVIPDLAEHLQAGIVVLGTVGRTGISAAFLGNTAEQVIDHLRCDLLVIKPDQYQTPVELDDEEDD [P0AAC0]	4.78 ± 0.088 h	4.77 ± 0.46 h	4.73 ± 0.4 h	5.473 ± 0.017 h	4.47 ± 0.11 h	2.97 ± 0.39 h	5.6 ± 0.071 h	9.86 ± 0.44 h	5.01 ± 0.17 h	8.64 ± 0.4 h	5.56 ± 0.67 h	12.2 ± 0.15 h
MANLSGYNFAYLDEQTKRMIRRAILKAVAIPGYQVPFGGREMPMPYGWGTGGIQLTASVIGESDVLKVIDQGADDTTNAVSIRNFFKRVTGVNTTERTDDATVIQTRHRIPETPLTEDQIIIFQVPIPEPLRFIEPRETETRTMHALEEYGVMQVKLYEDIARFGHIATTYAYPVKVNGRYVMDPSPIPKFDNPKMDMMPALQLFGAGREKRIYAVPPFTRVESLDFDDHPFTVQQWDEPCAICGSTHSYLDEVVLDDAGNRMFVCSDTDYCRQQSEAKNQ	–	–	–	–	–	–	–	–	–	–	0.723 ± 0.41 h	1.37 ± 0.74 h

Source: the supplement of paper PMC11246515
